Source: patent publication US5972678A, “Animal 2-5A dependent RNases” (Cleveland Clinic Foundation, priority 1995, dated 1999)

What was measured:
2-5A-dependent RNase = conditions: cited from earlier work
poly(U) = assay: ribonuclease assay with 2-5A-cellulose, poly(U) substrate; format: biochemical
Protocol: (§1) FIG. 5B is reticulocyte lysate pretreated to remove endogeous 2-5A-dependent RNase and is incubated in the absence of added mRNA (.box-solid.), in the presence of human 2-5A-dependent RNase mRNA without inhibitor (.smallcircle., .quadrature.) or in the presence of both 2-5A-dependent RNase mRNA and cycloheximide (50 μg per ml (.circle-solid.). See Example. Subsequently, the recombinant 2-5A-dependent RNase (or controls) is adsorbed to 2-5A-cellulose and ribonuclease assays are performed after extensive washing of the matrix to reduce general nuclease activity. Radiolabeled substrate RNA was either poly(U) (.smallcircle., .circle-solid., .box-solid.) or poly(C) (.quadrature.).
(§2) Ribonuclease assays with recombinant 2-5A-dependent RNase are performed after immobilizing and purifying the translation product on the activating affinity matrix, 2-5A-cellulose. It was previously shown that murine L cell 2-5A-dependent RNase bound to 2-5A-cellulose, resulting in ribonuclease activity against poly(U) but not poly(c). […]
(§3) Briefly, lysates are adsorbed to about […] of 2-5A-cellulose on ice for about two hours. […] The matrix is then incubated with poly(U)-[^32 P]Cp or poly(C)-[^32 P]Cp (both at about 16 μM in nucleotide equivalents) at about 30° C. and the levels of acid-precipitable radioactive RNA are determined by filtration on glass-fiber filters.

poly(C) = assay: ribonuclease assay with 2-5A-cellulose, poly(C) substrate; format: biochemical; conditions: isolated on 2-5A-cellulose
Protocol: as §1, §2, §3

For `Nc1ncnc2c1ncn2[C@@H]1O[C@H](COP(=O)(O)OP(=O)(O)OP(=O)(O)O)[C@@H](O)[C@H]1O` [ATP], the “stimulatory effect on 2-5A-dependent RNase activity” value (2-5A-dependent RNase) is given as “two-fold”.

B1: recombinant human 2-5A-dependent RNase: full-length human 2-5A-dependent RNase, amino acids 1-741 in Table I, produced in vitro in reticulocyte lysate (protein, UniProt Q05823 1-741, looked up)
chain: MESRDHNNPQEGPTSSSGRRAAVEDNHLLIKAVQNEDVDLVQQLLEGGANVNFQEEEGGWTPLHNAVQMSREDIVELLLRHGADPVLRKKNGATPFILAAIAGSVKLLKLFLSKGADVNECDFYGFTAFMEAAVYGKVKALKFLYKRGANVNLRRKTKEDQERLRKGGATALMDAAEKGHVEVLKILLDEMGADVNACDNMGRNALIHALLSSDDSDVEAITHLLLDHGADVNVRGERGKTPLILAVEKKHLGLVQRLLEQEHIEINDTDSDGKTALLLAVELKLKKIAELLCKRGASTDCGDLVMTARRNYDHSLVKVLLSHGAKEDFHPPAEDWKPQSSHWGAALKDLHRIYRPMIGKLKFFIDEKYKIADTSEGGIYLGFYEKQEVAVKTFCEGSPRAQREVSCLQSSRENSHLVTFYGSESHRGHLFVCVTLCEQTLEACLDVHRGEDVENEEDEFARNVLSSIFKAVQELHLSCGYTHQDLQPQNILIDSKKAAHLADFDKSIKWAGDPQEVKRDLEDLGRLVLYVVKKGSISFEDLKAQSNEEVVQLSPDEETKDLIHRLFHPGEHVRDCLSDLLGHPFFWTWESRYRTLRNVGNESDIKTRKSESEILRLLQPGPSEHSKSFDKWTTKINECVMKKMNKFYEKRGNFYQNTVGDLLKFIRNLGEHIDEEKHKKMKLKIGDPSLYFQKTFPDLVIYVYTKLQNTEYRKHFPQTHSPNKPQCDGAGGASGLASPGC
modifications: full-length
With B1 the “half-life of poly(U) degradation” value (poly(U); enzyme from reticulocyte lysate bound to 2-5A-cellulose, about 30° C.) was “about 10 minutes”, the “ribonuclease activity towards poly(U) (in words)” value (poly(U); isolated on 2-5A-cellulose) was “potent ribonuclease activity” and the “ribonuclease activity against poly(C) (in words)” value (poly(C)) was “none”.
